Test results as given in US20220289850 (published 2022).

Biological target: T1, mouse integrin avb8 (mouse)
T1 chain 1: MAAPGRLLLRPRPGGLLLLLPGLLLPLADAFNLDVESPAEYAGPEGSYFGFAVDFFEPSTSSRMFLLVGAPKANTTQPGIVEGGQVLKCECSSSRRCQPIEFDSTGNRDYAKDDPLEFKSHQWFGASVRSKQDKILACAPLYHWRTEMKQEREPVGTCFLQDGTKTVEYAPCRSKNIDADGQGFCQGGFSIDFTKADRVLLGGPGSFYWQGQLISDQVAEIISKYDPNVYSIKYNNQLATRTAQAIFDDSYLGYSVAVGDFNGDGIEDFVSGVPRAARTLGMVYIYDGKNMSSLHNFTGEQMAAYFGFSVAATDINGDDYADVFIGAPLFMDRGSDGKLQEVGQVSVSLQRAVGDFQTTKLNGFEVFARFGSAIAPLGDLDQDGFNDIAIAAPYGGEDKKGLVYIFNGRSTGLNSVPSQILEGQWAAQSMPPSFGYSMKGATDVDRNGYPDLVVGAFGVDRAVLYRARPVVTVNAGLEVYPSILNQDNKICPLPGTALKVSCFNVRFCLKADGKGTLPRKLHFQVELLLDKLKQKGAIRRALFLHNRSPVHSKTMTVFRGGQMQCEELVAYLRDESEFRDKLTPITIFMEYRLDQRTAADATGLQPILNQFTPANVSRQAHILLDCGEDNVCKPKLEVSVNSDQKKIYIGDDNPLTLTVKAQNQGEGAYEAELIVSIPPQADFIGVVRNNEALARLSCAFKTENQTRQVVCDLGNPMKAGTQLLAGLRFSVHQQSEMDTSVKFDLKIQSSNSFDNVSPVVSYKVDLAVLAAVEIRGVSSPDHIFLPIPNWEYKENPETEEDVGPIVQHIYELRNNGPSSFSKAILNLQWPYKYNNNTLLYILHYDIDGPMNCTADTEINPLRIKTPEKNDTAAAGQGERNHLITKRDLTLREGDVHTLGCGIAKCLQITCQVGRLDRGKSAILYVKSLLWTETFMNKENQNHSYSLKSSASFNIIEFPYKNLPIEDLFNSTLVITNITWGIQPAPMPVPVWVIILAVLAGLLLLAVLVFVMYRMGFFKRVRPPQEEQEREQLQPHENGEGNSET
T1 chain 2: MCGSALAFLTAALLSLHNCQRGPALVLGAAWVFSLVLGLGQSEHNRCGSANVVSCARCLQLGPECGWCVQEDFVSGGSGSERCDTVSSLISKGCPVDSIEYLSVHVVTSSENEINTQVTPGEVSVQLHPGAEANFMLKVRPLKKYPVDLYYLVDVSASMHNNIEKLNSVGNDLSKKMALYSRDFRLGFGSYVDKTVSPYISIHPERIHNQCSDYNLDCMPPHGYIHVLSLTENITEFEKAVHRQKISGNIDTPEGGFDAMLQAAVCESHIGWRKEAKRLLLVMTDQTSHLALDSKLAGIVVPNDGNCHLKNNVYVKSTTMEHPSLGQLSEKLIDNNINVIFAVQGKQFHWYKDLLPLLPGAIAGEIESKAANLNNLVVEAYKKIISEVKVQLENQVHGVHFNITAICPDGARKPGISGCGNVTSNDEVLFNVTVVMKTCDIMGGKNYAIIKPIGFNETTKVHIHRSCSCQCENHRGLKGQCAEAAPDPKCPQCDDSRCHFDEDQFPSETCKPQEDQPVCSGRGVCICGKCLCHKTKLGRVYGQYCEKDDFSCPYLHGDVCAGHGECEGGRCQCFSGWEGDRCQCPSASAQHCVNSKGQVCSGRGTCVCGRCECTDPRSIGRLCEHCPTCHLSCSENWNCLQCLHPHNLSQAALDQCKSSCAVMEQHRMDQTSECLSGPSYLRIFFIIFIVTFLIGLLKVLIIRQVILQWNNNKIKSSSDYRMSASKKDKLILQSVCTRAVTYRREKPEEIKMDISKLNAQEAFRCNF
Assay: FACS C8-S cells

B1: ADWA11 2.4 IgG (antibody)
chain 1: EVQLVESGGGLVQPGGSLRLSCAASGFNIKDYYMNWVRQAPGKGLEWVGWIDPDQGNTIYEPKFQGRFTISADTSKNSAYLQMNSLRAEDTAVYYCARRLLMDYWGQGTLVTVSSASTKGPSVFPLAPSSKSTSGGTAALGCLVKDYFPEPVTVSWNSGALTSGVHTFPAVLQSSGLYSLSSVVTVPSSSLGTQTYICNVNHKPSNTKVDKKVEPKSCDKTHTCPPCPAPEAAGAPSVFLFPPKPKDTLMISRTPEVTCVVVDVSHEDPEVKFNWYVDGVEVHNAKTKPREEQYNSTYRVVSVLTVLHQDWLNGKEYKCKVSNKALPAPIEKTISKAKGQPREPQVYTLPPSREEMTKNQVSLTCLVKGFYPSDIAVEWESNGQPENNYKTTPPVLDSDGSFFLYSKLTVDKSRWQQGNVFSCSVMHEALHNHYTQKSLSLSPGK
chain 2: DIQMTQSPSSLSASVGDRVTITCRSTKSLSHFNGNTYLFWYQQKPGKAPKRLIYYMSSLASGVPSRFSGSGSGTDFTLTISSLQPEDFATYYCQQSLEYPFTFGGGTKVEIKRTVAAPSVFIFPPSDEQLKSGTASVVCLLNNFYPREAKVQWKVDNALQSGNSQESVTEQDSKDSTYSLSSTLTLSKADYEKHKVYACEVTHQGLSSPVTKSFNRGEC
EC50: 0.145 nM
